The values that follow come from US20130177572A1 (X BODY, published 2013).

For orientation: Kd means a measure of binding affinity in units of concentration. A low value points to tighter binding.

Numbering of substitutions follows the chain as printed.

In assay [1] the target is T1, human PDGFRβ (human, UniProt P09619 33-530, limits assumed).
T1 construct: also called hPDGFRβ; recombinant human PDGFRβ
The experiment in a line: ELISA of unpaired VL domains: plate coated with human PDGFRβ or human Fc, OD 450 nm. As for the experimental part: A PDGFRβ binding ELISA assay was performed to assess the binding of the scFv to immobilized PDGFRβ and to determine the EC50. Specifically, 2 ug/mL of human PDGFRβ and human Fc or IgG in PBS was immobilized on Maxisorp plates at 4° C. overnight. The plate was then washed and blocked with superblock. […] 100 ul of the diluted scFv lysate was loaded into each well of Maxisorp plates and incubated for 1 hour at room temperature. scFv that bound to immobilized PDGFRβ was detected by anti-flag antibody-HRP at 1:5000 dilution and a TMB substrate. The plate was read on a Molecular Device plate reader with end point assay at OD 450 nm.

Assay [2] addresses T1, human PDGFRβ. The experiment in a line: ELISA: plate coated with 2 ug/mL human PDGFRβ or human IgG, in vitro translated crude scFv lysate diluted 1:3, anti-flag-HRP, OD450. As for the experimental part:
(§1) A PDGFRβ binding ELISA assay was performed to assess the binding of the scFv to immobilized PDGFRβ and to determine the EC50. Specifically, 2 ug/mL of human PDGFRβ and human Fc or IgG in PBS was immobilized on Maxisorp plates at 4° C. overnight. The plate was then washed and blocked with superblock. In vitro translated crude scFv lysate was diluted 1:3 in 1×PBST. 100 ul of the diluted scFv lysate was loaded into each well of Maxisorp plates and incubated for 1 hour at room temperature. scFv that bound to immobilized PDGFRβ was detected by anti-flag antibody-HRP at 1:5000 dilution and a TMB substrate. The plate was read on a Molecular Device plate reader with end point assay at OD 450 nm.
A general note: In an ELISA, binding on a coated surface is turned into a signal by an enzyme label.

In assay [3] the target is T1, human PDGFRβ. Nature of the assay: solution equilibrium binding: 35S-Met labelled in vitro translated protein, human PDGFRβ titrated, capture on protein A beads, scintillation counts. As for the experimental part: The affinity of several scFvs was determined by solution based equilibrium binding assay. Specifically, 120 pmol of scFv RNA was translated into free protein with ³⁵S Met incorporated. The translated reaction mixture was 3-fold diluted in binding buffer containing 1×PBS with 0.025% triton, 1 mg/mL BSA and 0.1 mg/mL sssDNA. Human PDGFRβ was diluted in the same binding buffer to final concentrations from 100 nM to 0 nM. The diluted scFv mixture was incubated with hPDGFRβ in final volume of 100 ul on Kingfisher plates (Thermofisher Scientific, 97002084). Following incubation, 25 ul of protein A magnetic beads (Invitrogen) were used to capture the PDGFRβ from solution. The captured PDGFRβ was washed and eluted in kingfisher Reader (Thermofisher Scientific). The amount of scFv (labeled with ³⁵S Met) bound to the magnetic bead-immobilized hPDGFRβ was counted using a scintillation counter and the Kd was calculated with Graph Pad Prism 5.

In assay [4] the target is T1, human PDGFRβ. The experiment in a line: ELISA: plate coated with 2 ug/mL human PDGFRβ or human Fc, in vitro translated crude lysate diluted 1:3, anti-flag-HRP, OD450. As to the method:
as §1

T1 sequence (P09619 33-530 limits assumed): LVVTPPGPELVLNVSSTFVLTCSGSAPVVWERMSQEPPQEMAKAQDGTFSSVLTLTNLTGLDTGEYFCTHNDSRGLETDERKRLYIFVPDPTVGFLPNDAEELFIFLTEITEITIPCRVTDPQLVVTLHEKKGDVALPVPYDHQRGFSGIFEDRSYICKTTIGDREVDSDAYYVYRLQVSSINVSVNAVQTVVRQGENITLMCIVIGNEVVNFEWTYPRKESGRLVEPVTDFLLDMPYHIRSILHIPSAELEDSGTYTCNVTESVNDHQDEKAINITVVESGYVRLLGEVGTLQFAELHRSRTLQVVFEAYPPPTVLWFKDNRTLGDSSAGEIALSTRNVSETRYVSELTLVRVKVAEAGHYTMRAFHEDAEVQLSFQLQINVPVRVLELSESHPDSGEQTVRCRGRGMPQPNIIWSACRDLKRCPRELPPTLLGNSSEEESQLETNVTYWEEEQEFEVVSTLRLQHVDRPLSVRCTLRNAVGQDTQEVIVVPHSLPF

B1: C7 VL (other)
VL domain: DIVMTQTPLSLSVTPGQPASISCKSSQSLLHSDGKTHLFWYLQRPGQSPQLLIYEVSGRFSGVSERFSGSGSGTDFTLKISRVEAEDVGVYYCMQGLHIPHTFGQGTKVEIK
notes: unpaired VL domain; also called unpaired C7 VL domain
Turning to B1, the binding result with human PDGFRβ [1] was “no binding (tested: no concentration on the sheet)”.

B2: B6 (scFv, V domains shown)
VH: QVQLVQSGAEVKKPGSSVRVSCKASGGTFSRHAISWVRQAPGQGLEWIGGILPILKTPNYAQRFQGRVTINADESTSTVYMEMSSLRSEDTAVYYCATHGGDRSYWGQGTLVTVSS
VL: EIVLTQSPGTLSLSPGERATLSCRASQSFGSNYLAWYQHKPGQAPRLLIFAASNRATGIPDRFTGSASGTDFTLTINRVEPEDLAVYYCQQYGSFPYSFGQGTKLEIK
notes: also called XB2202/B6 scFv
In the case of B2, the binding result in the assay with human PDGFRβ [2] was “binds”.

B3: F3 (scFv, V domains shown)
VH: B2 VH
VL: QSVLTQPPSVSVAPGKTARITCGGNNIGSKSVHWYQQKPGQAPVLVIYYDSDRPSGIPERFSGSNSGNTATLTISRVEAGDEADYYCQVWDSSSDHWVFGGGTKLTVL
notes: also called XB2202/F3 scFv
Take B3: the binding result in the assay with human PDGFRβ [2] is given as “binds”.

B4: G5 (scFv, V domains shown)
VH: B2 VH
VL: DIQMTQSPSSLSASVGDRVTITCRASQDISSSLAWYQQKPGKAPKPLIYDASTLQTGVPSRFSGRASGTDFTLTIDSLQPEDFATYCCQQFNSYPLSFGGGTKVELKR
notes: also called XB2202/G5 scFv
Regarding B4, the binding result in the assay with human PDGFRβ [2] is “binds”.

B5: H5 (scFv, V domains shown)
VH: B2 VH
VL: SYELTQPPSVSMAPGKTARITCGGNNLGSKIVHWYQQKPGQAPVVVIYSDRDRPSGVPERFSGSNSGNSATLTISGVEAGDEADYYCQVWDSATDHVVFGGGTKLTVL
notes: also called XB2202/H5 scFv
For B5, the binding result with human PDGFRβ [2] is recorded as “binds”.

B6: D1 (scFv, V domains shown)
VH: B2 VH
VL: DIVMTQTPLSLSVTPGQPAAISCKSSQSLVHRDGKTYLYWYLQKPGHSPQLLVYEASSRFSGVPDRISGSASGTQFTLNISRVEAEDVGLYYCMQSRNLPKTFGQGTKVEIK
notes: also called XB2202/D1 scFv
Consider B6, for which the binding result with human PDGFRβ [2] was “binds”.

B7: H8 scFv (scFv, V domains shown)
VH: QVQLVQSGAEVKKPGSSVKVSCKASGGTFSSYAISWVRQAPGQGLEWMGGIIPIFGTANYAQKFQGRVTITADESTSTAYMELSSLRSEDTAVYYCAIHGGDRSYWGQGTLVTVSS
VL: QSVLTQSPGTLSLSPGERATLSCRASQSVSSNYLAWYLQKPGQAPRLLISGASSRATGIPDRFSGSGSGTDFTLTISRLEPEDFAVYYCQQYAGSPFTFGPGTKLTVL
notes: VL of the second round pool paired with XB1511 VH
In the assay with human PDGFRβ [3], B7 registered an equilibrium dissociation constant (Kd) of 24.4 nM. In other words, the double-digit nanomolar range.

B8: C7 scFv (scFv, V domains shown)
VH: B7 VH
VL: B1 VL domain
notes: as for B7
Turning to B8, the binding result in the assay with human PDGFRβ [4] was “binds”.

B9: G8 scFv (scFv, V domains shown)
VH: B7 VH
VL: QSVLTQSPGTLSLSPGDRATLSCRASQSLSGTYLAWYQQKPGQAPRLLIYDASNRAAGIPKRFSGSGSRTDFTLTISRVDPADSAVYYCQQYGSALLTFGGGTKVTVL
notes: as for B7
On to B9, for which the binding result with human PDGFRβ [4] was “binds”.

B10: B11 VL (other)
VL domain: B7 VL with L38Q, S50Y, T57S, D61V, F63V, A93G, G94S, F97W, P101Q
notes: unpaired VL domain; also called unpaired B11 VL domain
As for B10, the binding result with human PDGFRβ [1] was “no binding (tested: no concentration on the sheet)”.

B11: A8 scFv (scFv, V domains shown)
VH: B7 VH
VL: QAGLTQSPDFQSVTPKERVTITCRASRYIGSNLHWYQQKPDQPPKLLIKLASQSFSGVPPRFSGGGSGTDFTLTINGLEAEDAATYYCHQTGSFPYTFGQGTKLTVL
notes: as for B7
B11: the binding result in the assay with human PDGFRβ [4] is given as “binds”.

B12: H11 scFv (scFv, V domains shown)
VH: B7 VH
VL: QSVLTQSPDFQSVTPKEKVTITCRASQSIGSSLHWYQQKPDQSPKLLITFASQSFSGVPSRFSGSGSGTDFTLTINSLEAEDAATYYCHQSRNLPFTFGPGTKLTVL
notes: as for B7
In turn, B12 showed a Kd with human PDGFRβ [3] of 12.9 nM. That is a double-digit nanomolar value.

B13: H10 scFv (scFv, V domains shown)
VH: B7 VH
VL: QSVLTQSPDFQSVSPKDKVTITCRASQSIGSSLHWYQQKPGQSPKLLIKYSSQSFSGVPSRFSGSASGTEFTLTITGLEAEDAATYYCHQSSSLPHTFGQGTKVTVL
notes: as for B7
In the assay with human PDGFRβ [3], B13 registered a Kd of 23.2 nM.

B14: H8 VL (other)
VL domain: B7 VL
notes: unpaired VL domain; also called unpaired H8 VL domain
As for B14, in the assay with human PDGFRβ [1], the binding result is recorded as “no binding (tested: no concentration on the sheet)”.

B15: B11 scFv (scFv, V domains shown)
VH: B7 VH
VL: B7 VL with L38Q, S50Y, T57S, D61V, F63V, A93G, G94S, F97W, P101Q
notes: VL of the second round pool paired with XB1511 VH; also called XB1511/B11 scFv
For the molecule B15, the binding result with human PDGFRβ [4] was “binds”.

B16: H11 VL (other)
VL domain: B12 VL
notes: unpaired VL domain; also called unpaired H11 VL domain
Take B16: the binding result with human PDGFRβ [1] is “no binding (tested: no concentration on the sheet)”.

B17: G11 VL (other)
VL domain: EIVLTQSPGTLSLSPGEGATLSCRASQSVSSRNLAWYQQKPGQAPRLLIYGGSIRASGTSTRFSGSGSGTDFTLTINRLEPEDFAVYYCQQYGDSVFTFGPGTKVDIK
notes: unpaired VL domain; also called unpaired G11 VL domain
For B17, the binding result with human PDGFRβ [1] is “no binding (tested: no concentration on the sheet)”.

B18: G8 VL (other)
VL domain: B9 VL
notes: unpaired VL domain; also called unpaired G8 VL domain
As to B18, the binding result with human PDGFRβ [1] is reported as “no binding (tested: no concentration on the sheet)”.

B19: A8 VL (other)
VL domain: B11 VL
notes: unpaired VL domain; also called unpaired A8 VL domain
In the case of B19, the binding result with human PDGFRβ [1] is “no binding (tested: no concentration on the sheet)”.

B20: H10 VL (other)
VL domain: B13 VL
notes: unpaired VL domain; also called unpaired H10 VL domain
Consider B20, for which the binding result with human PDGFRβ [1] was “no binding (tested: no concentration on the sheet)”.
